The supplement of paper PMC10567573
± gives the standard deviation.

Assay: protein stability index of a GFP-peptide fusion (GPS, HEK-293T) (PSI 1-6); higher = more stable
[1] = treatment: DMSO, c terminus: a fixed tail appended
[2] = treatment: MLN4924 1 uM, 8 h, c terminus: a fixed tail appended
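Note: 24-mer peptide tiles fused after GFP, lentivirally expressed, FACS-sorted into six equal bins by GFP/DsRed ratio, decoded by Illumina sequencing, PSI is the read-weighted mean bin number.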

Sequence | protein stability index [1] | protein stability index [2] | protein stability index (treatment: DMSO, c terminus: native) | protein stability index (treatment: MLN4924 1 uM, 8 h, c terminus: native)
VAVKKKLQLYFWKDREFHELQGDF [VPS39] | 2.12 ± 0.3 | 2.06 ± 0.58 | – | –
VCMTFMKQIAGGDVTAKNIWLAES [INTS3] | 2.53 ± 0.62 | 2.92 ± 0.6 | – | –
VDAGAEPGRSRMISQEEFARQLQL [LPCAT4] | 4.52 ± 0.27 | 4.5 ± 0.15 | – | –
VDSLESHIPSQEVPGTQVGQGGKL [ZNF263] | 5.33 ± 0.2 | 5.16 ± 0.22 | – | –
VEASCSVCLEYLKEPVIIECGHNF [TRIM39] | 2.07 ± 0.39 | 2.25 ± 0.21 | – | –
VEKVLRRWVDEEWPKRERGDPSRH [EDARADD] | 2.97 ± 0.43 | 3.28 ± 0.67 | – | –
VETAFERLQQELEQQRCLLLARLR [TRIM15] | 2.81 ± 0.33 | 2.86 ± 0.3 | – | –
VEYEERESEFDIEDEDKSEPEQTG [RBBP5] | 5.64 ± 0.23 | 5.54 ± 0.32 | – | –
VFGFIAAYVLSKYQYFVCPVEYRS [CDS1] | 3.38 ± 0.39 | 3.15 ± 0.27 | – | –
VGDLMGSLAYCLACGGGHLLPYFY [DHCR7] | 3.12 ± 0.28 | 3.47 ± 0.39 | – | –
VGEKNCTGPPCDRQWTVSDWGPCS [ADAMTSL2] | 3.53 ± 0.3 | 3.32 ± 0.66 | – | –
VGGYFVDKFVATMYHYLQFAYYKL [P3H4] | 3.67 ± 0.73 | 2.56 ± 0.048 | – | –
VGRIIAPLLSGVAQEVSPCGPPSL [MFSD9] | 2.72 ± 0.23 | 2.65 ± 0.29 | – | –
VIFGVELPGNEEFQVVKDAVLDCL [TENT5D] | 2.23 ± 0.41 | 2.25 ± 0.24 | – | –
VISLLNEPNTFSPANVDASVMYRK [CDC34] | 2.92 ± 0.25 | 3.07 ± 0.21 | – | –
VKLWKVSERDKRPEGYNLKDEEGR [PPP2R2B] | 4.07 ± 0.5 | 4.336 ± 0.038 | – | –
VKVIRDFTTNKCKGFGFVTMTNYD [ELAVL3] | 2.35 ± 0.47 | 2.15 ± 0.22 | – | –
VLALEERFGVRPKVTGYLISYSSM [MFSD9] | 2.17 ± 0.53 | 1.95 ± 0.099 | – | –
VLGAHRGHPVGLALEAAVHVQKLS [TRIM14] | 2.63 ± 0.3 | 2.91 ± 0.26 | – | –
VLGTKVDAERDGVKVPTTLAEYCV [CDC34] | 4.073 ± 0.014 | 4.07 ± 0.12 | – | –
VLLMAICIVSPDRPGVQDAALIEA [VDR] | 2.8 ± 0.33 | 2.77 ± 0.66 | – | –
VLRGLARPEHPPPAPTGQDDPQSQ [TMEM175] | 5.39 ± 0.45 | 5.54 ± 0.22 | – | –
VLVAETTMARIRRVYVSGLMKGGA [APMAP] | 2.17 ± 0.27 | 2.1 ± 0.28 | – | –
VNAKDNMWLTPLHRAVASRSEEAV [ANKRD44] | 4.07 ± 0.29 | 4.02 ± 0.44 | – | –
VNFMYLQSLLQPKSSSVDSELTSL [SMG5] | 2.21 ± 0.39 | 2.15 ± 0.39 | – | –
VNLPISFFRKLLDCCQVSAPNRFF [NLN] | – | 2.62 ± 0.6 | – | –

Sequence | protein stability index [1] | protein stability index [2] | protein stability index (treatment: DMSO, c terminus: native) | protein stability index (treatment: MLN4924 1 uM, 8 h, c terminus: native)
VNYLPQNMTQDEFKSLFGSIGDIE [ELAVL3] | 3.8 ± 0.11 | 4 ± 0.27 | – | –
VPIGASIYVIGDLDTGTNYDYVRE [GAN] | 2.29 ± 0.45 | 2.21 ± 0.31 | – | –
VQELCKQLHAKIDAAEEEKYDMEV [TNNI2] | 4.81 ± 0.28 | 4.74 ± 0.1 | – | –
VQVENPERFSSAPCLLGSRVFSQG [TRIM35] | 3.09 ± 0.24 | 3.2 ± 0.22 | – | –
VRDSDSLAESEFESAAFSQGSRSG [PHTF1] | 5.15 ± 0.26 | 5.13 ± 0.28 | – | –
VRVCDLLLKKKPPQQQHHKAKRNR [ANKRD17] | 3.33 ± 0.39 | 3.38 ± 0.22 | – | –
VSLGLGQPWHAVMDIESLSVFTEP [FBXO33] | 2.31 ± 0.56 | 1.99 ± 0.26 | – | –
VSNTPLRTVDGSPMMKAAMYSVEI [PALM] | 2.27 ± 0.4 | 2.42 ± 0.17 | – | –
VSPGSPPPPLPNHKYNTTSTSYSP [PLAGL1] | 4.27 ± 0.15 | 4.21 ± 0.27 | – | –
VSTRLTVLREDQIPRGFPTIDMGP [PTPRD] | 2.33 ± 0.47 | 2.53 ± 0.18 | – | –
VTDKTLLICKYDFIMLSCVQLQRI [TPRG1] | 3.35 ± 0.84 | 3.48 ± 0.72 | – | –
VTFGNKQKVLGKALSLIRFPLMTI [BTBD1] | 2.4 ± 0.041 | 2.4 ± 0.75 | – | –
VTPAQNNLLQPNFEAAFGTTPSTS [SNAP91] | 4.52 ± 0.13 | 4.62 ± 0.14 | – | –
VTSYCRSATLVGFTVGSVLGQILV [SLC19A2] | 3.5 ± 0.39 | 2.84 ± 0.6 | – | –
VVKYRRPMDVYETGIEYIVAQGPT [ADAMTSL2] | 2.13 ± 0.5 | 2.25 ± 0.46 | – | –
VVLCFSIANPNSLNHVKSMWYPEI [RHOBTB1] | 4.05 ± 0.91 | 3.6 ± 0.21 | – | –
VVNSHSLSLLGKLTISAAFNIVYI [SLC22A15] | 3.07 ± 0.43 | 3.09 ± 0.64 | – | –
VVTRVVTGVYPRCLHASQWPVCAA [BRF1] | 2.54 ± 0.51 | 2.75 ± 0.23 | – | –
VWYYCTLTIRESILINNGSRIKGW [TMEM120A] | 3.08 ± 0.61 | 2.96 ± 0.36 | – | –
VYHIECFRCSVCSRQLLPGDEFSL [ISL2] | 2.34 ± 0.14 | 2.4 ± 0.23 | – | –
WADAAGEAVPEGPDGGGPWLEDEP [ZSWIM9] | 5.62 ± 0.34 | 5.26 ± 0.47 | – | –
WEEWQFLSPAQKDLYRDVMLENYS [ZNF649] | 3.48 ± 0.35 | 3.6 ± 0.2 | – | –
WEKVGSGGFGQVYKVRHVHWKTWL [RIPK4] | – | 2.24 ± 0.21 | – | –
WEPFDWGRLLEALCREEPVVQGPD [FANCE] | 3.001 ± 0.014 | 3.22 ± 0.23 | – | –
WFIHLVFVVLAFLTGVLCSYPNPN [TMEM192] | 3.346 ± 0.002 | 2.89 ± 0.56 | – | –
WKERDEYITKVSEEVTRLGAQVKE [TRIM15] | 4.69 ± 0.23 | 4.22 ± 0.42 | – | –

Sequence | protein stability index [1] | protein stability index [2] | protein stability index (treatment: DMSO, c terminus: native) | protein stability index (treatment: MLN4924 1 uM, 8 h, c terminus: native)
WLQKLCCPCCFGRDCLVLNQGYLS [PI4K2A] | 2.4 ± 0.45 | 2 ± 0.24 | – | –
WNPDARYSEHFLQEAKLLHWNGRH [GLT8D2] | 2.81 ± 0.21 | 2.67 ± 0.27 | – | –
YANGGLNYSYRGYGALSSNLQPPA [NOL4L] | 2.49 ± 0.36 | 2.94 ± 0.35 | – | –
YDDDIDDEDEEEEDADCYDDDDSG [UBE2R2] | 5.58 ± 0.11 | 5.61 ± 0.24 | – | –
YEDGTELTEDYFPSVPDNAELVLL [DFFB] | 3.52 ± 0.36 | 3.7 ± 0.23 | – | –
YEDIRRENPVGTFHCSMSPGNLEK [PTPN9] | 4.58 ± 0.23 | 4.73 ± 0.13 | – | –
YEFHLEFLDLVKPEPVYKLTQRQV [HACD3] | 2.54 ± 0.63 | 2.12 ± 0.076 | – | –
YERPNVETIKCVVVGDNAVGKTRL [RHOBTB1] | 3.71 ± 0.23 | 3.86 ± 0.21 | – | –
YFFLCQPFREILCKKLHIPLKAQN [P2RY14] | 2.62 ± 0.75 | 1.99 ± 0.25 | – | –
YHYGVASCEACKAFFKRTIQGNIE [ESRRG] | 2.43 ± 0.19 | 2.65 ± 0.58 | – | –
YIQSRADTMQNIESTIVELGSIFQ [STX5] | 2.33 ± 0.2 | 2.62 ± 0.29 | – | –
YISRKYFATRPGAIETAMEDLKGH [TPRG1] | 2.73 ± 0.41 | 2.81 ± 0.43 | – | –
YLATAKVLITVEDVNDNSPELTIT [PCDHGA10] | 2.49 ± 0.2 | 2.44 ± 0.22 | – | –
YLGLVRTHINAVVAKIQAKIPGAK [RTN1] | 2.35 ± 0.29 | 2.06 ± 0.54 | – | –
YLSQTDGAGDWREKEAKDLTELVQ [FUT8] | 4.52 ± 0.27 | 4.7 ± 0.29 | – | –
YPALASKNGKKWEILNFNQYYEAC [ACSBG2] | 2.68 ± 0.26 | 2.81 ± 0.41 | – | –
YPRYPDIHDLDLTLLNPRMIVDVT [CLCN6] | 2.48 ± 0.14 | 2.54 ± 0.22 | – | –
YPWDENHCKEKRKTSLLDQLTNTS [NETO1] | 3.94 ± 0.21 | 4.07 ± 0.25 | – | –
YRFHEHWRFVLQRLVFLAAFVVYL [TSN] | 2.86 ± 0.37 | 2.8 ± 0.96 | – | –
YRQKKRAEQEALTGECKELEKKNE [ATF4] | 5.47 ± 0.24 | 5.59 ± 0.19 | – | –
YSGAYGASVSDEELKRRVAEELAL [CHCHD3] | 3.11 ± 0.52 | 3.53 ± 1.1 | – | –
YTNSAGVPSLNAALMHTLQRHRDI [GOSR1] | 2.79 ± 0.15 | 2.92 ± 0.23 | – | –
YVFFEKDFGDMHSYVRSRKRLREE [TRIB1] | 2.46 ± 0.59 | 2.66 ± 0.93 | – | –
YVIVSGAQRKEERWDMADNEQVLT [YJU2B] | 2.88 ± 0.37 | 3.19 ± 0.24 | – | –
YWEAWRHHCQGKDLTEWVDGCDF [SPACA3] | – | – | 2.84 ± 0.15 | 3.04 ± 0.25
